Reference: US20120041177A1 (SPIBER TECHNOLOGIES AB C O RISING, published 2012)

What was measured:
[1] = target: the molecule itself; assay: self-polymerisation at pH 6; macroscopic formation, SEM and turbidimetry
[2] = target: the molecule itself; assay: self-polymerisation at pH 6; macroscopic formation and SEM
Procedure: Conditions for fiber formation were essentially as described in Stark, M. et al. Biomacromolecules 8, 1695-1701, (2007). Approximately 25 μM of each protein was incubated in 20 mM Na phosphate buffer at pH 7 or 6, with or without 300 mM NaCl. At different time points, samples were applied on SEM stubs, where they were air-dried and vacuum-coated with gold and palladium. The samples were photographed with a LEO 1550 FEG microscope (Carl Zeiss, Oberkochen, Germany) using an acceleration voltage of 5 kV.
The arrows in FIG. 3 indicate when macroscopic formations first were detected, showing that at pH 7 the presence of NT delays polymerisation, while at pH 6 it accelerates polymerisation. This is independent of whether the C-terminal fragment (filled circle) is present or not (indicated by the striped circle). Moreover, the presence of NT results in more ordered polymerisation, exemplified by the scanning electron micrographs in FIG. 3, which are representative early polymers for all constructs at pH 7 (above time scale) or for NT4RepCT at pH 6 (below time scale).

[3] = target: the molecule itself; assay: self-association; dynamic light scattering and turbidimetry; reversed by an increase of pH, blocked by high levels of salt
Procedure: The effect of pH and ionic strength on the hydrodynamic diameter of NT and NTΔHis6 (to exclude that pH dependent effects are caused by His at position 6) was measured at 25±0.1° C. in a Zetasizer Nano S from Malvern Instruments (Worcestershire, UK) equipped with a 633 nm HeNe laser. The buffers were filtered through nylon filters prior to use. The sample volume was 50 μl and ZEN2112 low glass cuvettes were used. The attenuation and measurement positions from the cuvette wall (4.65 mm) were kept constant for all analyses. Six scans were performed for each sample. All samples were analyzed in triplicate. The hydrodynamic diameter (dH) was calculated using the General Purpose algorithm in the Malvern software for DLS analysis, which correlates the diffusion coefficient to the hydrodynamic diameter through the Stokes-Einstein equation: […]
NT was subjected to dynamic light scattering at pH 6-7 and 0-300 mM NaCl. See also Table 3

NT2-REP4-CT = target: T1, NT2-REP4-CT; assay: capture of soluble protein on fibers at pH 6, release at pH 7, SDS-PAGE; 300 mM NaCl decreased capture at pH 6
T1 construct: Stood in the assay as a solid fiber; also called NTNT-REP-CT; HisNTNT4RepCT
T1 chain: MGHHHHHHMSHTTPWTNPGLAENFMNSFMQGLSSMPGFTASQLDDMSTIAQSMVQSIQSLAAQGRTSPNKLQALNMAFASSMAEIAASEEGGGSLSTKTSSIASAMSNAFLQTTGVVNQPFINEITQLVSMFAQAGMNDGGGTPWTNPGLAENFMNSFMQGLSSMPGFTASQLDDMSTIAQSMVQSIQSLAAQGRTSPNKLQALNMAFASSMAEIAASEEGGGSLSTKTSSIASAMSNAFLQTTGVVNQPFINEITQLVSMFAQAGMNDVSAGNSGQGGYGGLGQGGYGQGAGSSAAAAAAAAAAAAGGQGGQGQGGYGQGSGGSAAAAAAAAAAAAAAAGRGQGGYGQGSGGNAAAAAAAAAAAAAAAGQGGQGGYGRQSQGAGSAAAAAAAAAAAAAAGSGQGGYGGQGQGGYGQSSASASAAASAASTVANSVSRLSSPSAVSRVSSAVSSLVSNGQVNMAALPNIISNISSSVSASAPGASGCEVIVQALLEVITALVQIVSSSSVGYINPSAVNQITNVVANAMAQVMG
Procedure: (§1) Fibers (˜0.5 cm long, ˜50 ug) of NT-REP₄-CT (SEQ ID NO 20), NT₂-REP₄-CT (SEQ ID NO 23) and REP₄-CT (SEQ ID NO 2, control) were submerged in 100 μl solution of 5 mg/ml soluble NTHis (SEQ ID NO 30) or NT₂-Brichos (SEQ ID NO 32) at pH 8 for 10 minutes. The pH was decreased by addition of 400 ul sodium phosphate buffer (NaP) to pH 6 and incubated for 10 minutes to allow assembly of soluble NT to the fiber. The fibers were transferred to 500 μl of NaP at pH 6, and washed twice. Finally, the fibers were transferred to 500 μl of NaP at pH 7, and incubated 10 minutes to allow release of soluble NT. The same was done in the presence of 300 mM NaCl in all pH 6 NaP buffers. Samples from the different solutions were analysed on SDS-PAGE.

NT-REP4-CT = target: T2, NT-REP4-CT; assay: as above
T2 construct: Stood in the assay as a solid fiber (about 0.5 cm, about 50 ug) or as a cast film; also called NT4RepCT
T2 chain: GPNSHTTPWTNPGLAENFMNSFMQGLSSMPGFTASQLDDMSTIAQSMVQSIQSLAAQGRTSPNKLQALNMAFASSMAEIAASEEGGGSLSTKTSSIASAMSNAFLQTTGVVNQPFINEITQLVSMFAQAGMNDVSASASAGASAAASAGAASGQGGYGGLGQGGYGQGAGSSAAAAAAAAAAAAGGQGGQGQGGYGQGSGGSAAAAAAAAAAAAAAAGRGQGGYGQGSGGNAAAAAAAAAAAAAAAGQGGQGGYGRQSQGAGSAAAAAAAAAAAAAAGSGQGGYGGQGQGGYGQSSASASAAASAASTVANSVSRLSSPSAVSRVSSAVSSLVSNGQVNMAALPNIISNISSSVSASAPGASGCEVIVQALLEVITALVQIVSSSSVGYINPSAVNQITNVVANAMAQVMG
Procedure: as §1

[4] = target: the molecule itself; assay: self-polymerisation at pH 6

B1: NT4Rep (other)
chain: GSGNSHTTPWTNPGLAENFMNSFMQGLSSMPGFTASQLDDMSTIAQSMVQSIQSLAAQGRTSPNKLQALNMAFASSMAEIAASEEGGGSLSTKTSSIASAMSNAFLQTTGVVNQPFINEITQLVSMFAQAGMNDVSASASAGASAAASAGAASGQGGYGGLGQGGYGQGAGSSAAAAAAAAAAAAGGQGGQGQGGYGQGSGGSAAAAAAAAAAAAAAAGRGQGGYGQGSGGNAAAAAAAAAAAAAAAGQGGQGGYGRQSQGAGSAAAAAAAAAAAAAAGSGQGGYGGQGQGGYGQS
notes: Non-natural minispidroin derived from Euprosthenops australis MaSp1; Released from His6TrxHis6 by thrombin
B1: binds [1].

B2: NT4RepCT (as an N-terminal fusion to His6) (other)
chain: MKASHTTPWTNPGLAENFMNSFMQGLSSMPGFTASQLDDMSTIAQSMVQSIQSLAAQGRTSPNKLQALNMAFASSMAEIAASEEGGGSLSTKTSSIASAMSNAFLQTTGVVNQPFINEITQLVSMFAQAGMNDVSASASAGASAAASAGAASGQGGYGGLGQGGYGQGAGSSAAAAAAAAAAAAGGQGGQGQGGYGQGSGGSAAAAAAAAAAAAAAAGRGQGGYGQGSGGNAAAAAAAAAAAAAAAGQGGQGGYGRQSQGAGSAAAAAAAAAAAAAAGSGQGGYGGQGQGGYGQSSASASAAASAASTVANSVSRLSSPSAVSRVSSAVSSLVSNGQVNMAALPNIISNISSSVSASAPGASGCEVIVQALLEVITALVQIVSSSSVGYINPSAVNQITNVVANAMAQVMGKLAAALEHHHHHH
notes: also called NT4RepCTHis
B2: binds [2].

B3: NT, N-terminal fragment of major ampullate spidroin (MaSp) 1 from Euprosthenops australis (other)
chain: GSGNSHTTPWTNPGLAENFMNSFMQGLSSMPGFTASQLDDMSTIAQSMVQSIQSLAAQGRTSPNKLQALNMAFASSMAEIAASEEGGGSLSTKTSSIASAMSNAFLQTTGVVNQPFINEITQLVSMFAQAGMNDVSA
notes: Expressed as a C-terminal fusion to His6TrxHis6 and released by thrombin
B3: binds [3].

B4: NT2-Brichos (other)
chain: MGHHHHHHMSHTTPWTNPGLAENFMNSFMQGLSSMPGFTASQLDDMSTIAQSMVQSIQSLAAQGRTSPNKLQALNMAFASSMAEIAASEEGGGSLSTKTSSIASAMSNAFLQTTGVVNQPFINEITQLVSMFAQAGMNDGGGTPWTNPGLAENFMNSFMQGLSSMPGFTASQLDDMSTIAQSMVQSIQSLAAQGRTSPNKLQALNMAFASSMAEIAASEEGGGSLSTKTSSIASAMSNAFLQTTGVVNQPFINEITQLVSMFAQAGMNDVSAGNSEHLVTTATFSIGSTGLVVYDYQQLLIAYKPAPGTCCYIMKIAPESIPSLEALTRKVHNFQMECSLQAKPAVPTSKLGQAEGRDAGSAPSGGDPAFLGMAVSTLCGEVPLYYI
notes: Soluble fusion protein with His6, used at 5 mg/ml; also called NT-NT-Brichos; NTNTBrichos
B4: binds (NT2-REP4-CT); binds (NT-REP4-CT).

B5: NT5Rep (other)
chain: GSGNSHTTPWTNPGLAENFMNSFMQGLSSMPGFTASQLDDMSTIAQSMVQSIQSLAAQGRTSPNKLQALNMAFASSMAEIAASEEGGGSLSTKTSSIASAMSNAFLQTTGVVNQPFINEITQLVSMFAQAGMNDVSASASAGASAAASAGAPGYSPAPSYSSGGYASSAASAAAAAGQGGPGGYGPAPNQGASSAAAAAAGSGQGPSGPYGTSYQISTQYTQTTTSQGQGYGSSSAGAAAAGAAGAGQGGYGGQGQGGYGQGAGGAAAAAAAAAAAAAAAGQGGQGGGGYGQGGQGGQGGQGQGGYGQGAGSSAAAAAAAAAAAAAAGRGQGGYGPGSGG
notes: as for B1
B5: binds [4].

B6: NTHis (other)
chain: MSHTTPWTNPGLAENFMNSFMQGLSSMPGFTASQLDDMSTIAQSMVQSIQSLAAQGRTSPNKLQALNMAFASSMAEIAASEEGGGSLSTKTSSIASAMSNAFLQTTGVVNQPFINEITQLVSMFAQAGMNDVSASASAGASAAASAGAAALEHHHHHH
notes: Soluble protein, used at 5 mg/ml; also called NT as an N-terminal fusion to His6; soluble NT
B6: binds (NT2-REP4-CT); binds (NT-REP4-CT).
